Data reported in the RNAGym collection of RNA variant scans (doi:10.7554/elife.90254).

B1: LINE1-mini (parent)
chain: GGCAGAGCUCAACACAGCGUGGCAAAGUGGCUGUGGCUAGACUGCC

Variants of: B1
Test: self-cleavage, relative activity (ratio to wild type); higher = more cleavage; in vitro, sequencing; the parent is a self-cleaving ribozyme

Variant | self-cleavage
G19A G40C | 0.07
G19A G40U | 0.16
G19A G40A | 0.11
G19A G33C | 0.05
G19A G33A | 0.11
G19A G33U | 0.15
G19A U20G | 0.59
G19A U20C | 0.46
G19A U20A | 0.51
G19A G35C | 0.21
G19A G35U | 0.14
G19A G35A | 0.18
G19A U43C | 0.18
G19A U43G | 0.06
G19A U43A | 0.15
U20A U34G | 0.25
U20A U34C | 0.27
U20A U34A | 0.08
U20A C23A | 1.15
U20A C23G | 0.69
U20A C23U | 0.8
G19A G21A | 2.83
G19A G21U | 0.72
G19A G21C | 0.39

Variant | self-cleavage
G19A G29A | 1.14
G19A G29C | 1.31
G19A G29U | 0.94
G19A U34G | 0.29
G19A U34C | 0.43
G19A U34A | 0.1
G19U C46A | 1.08
G19U C46G | 0.71
G19U C46U | 0.86
G19C C42G | 0.01
G19C C42A | 0.14
G19C C42U | 0.25
G19A A26U | 1.89
G19C G33A | 0.15
G19C G33C | 0.12
G19C G33U | 0.34
G19C C45A | 0.47
G19C C45G | 0.17
G19C C45U | 0.79
U20A A26U | 0.91
U20A A26G | 0.91
U20A A26C | 0.76
G19C U32G | 0.43
G19C U32A | 0.16

Variant | self-cleavage
G19C U32C | 0.14
G19A C31A | 0.46
G19A C31U | 0.6
G19A C31G | 0.17
G19C C46G | 0.23
G19C C46U | 1.42
G19C C46A | 0.52
G19U C23A | 0.64
G19U C23U | 1.03
G19U C23G | 0.7
G19U G22A | 0.78
G19U G22C | 0.5
G19U G22U | 0.63
G19C A41G | 0.03
G19C A41C | 0.05
G19C A41U | 0.19
G19C C37U | 0.03
G19C C37G | 0.02
G19C C37A | 0.04
G19U G27U | 0.58
G19U G27C | 0.75
G19U G27A | 0.54
U20C C23A | 0.49
U20C C23G | 0.44

Variant | self-cleavage
U20C C23U | 0.61
G19U U28G | 0.73
G19U U28A | 0.63
G19U U28C | 0.67
U20A G35A | 0.1
U20A G35C | 0.05
U20A G35U | 0.08
U20C C31A | 0.27
U20A A25C | 0.61
U20A A25G | 0.26
U20A A25U | 0.77
G19U A26C | 0.61
G19U A26U | 0.56
G19A G36U | 0.09
G19A G36C | 0.16
G19A G36A | 0.18
G19A U38A | 0.82
G19A U38G | 0.02
G19A U38C | 1.09
U20C A41G | 1
U20C A41C | 0.08
U20C A41U | 0.46
G19A U28A | 1.57
G19A U28C | 0.51

Variant | self-cleavage
G19A U28G | 1.04
G19U U32C | 0.4
G19U U32G | 0.1
G19U U32A | 0.09
G19A A39C | 0.75
G19A A39G | 0.1
G19A A39U | 1.35
U20A G21U | 0.69
U20A G21C | 0.39
U20A G21A | 0.76
G19A G30A | 1.99
G19A G30U | 2.03
G19A G30C | 1.5
G19C G44C | 0.12
G19C G44A | 0.15
G19C G44U | 0.15
G19U U43A | 0.06
G19U U43G | 0.02
G19U U43C | 0.07
U20A C46G | 0.79
U20A C46A | 0.76
U20A C46U | 0.65
G19C G29C | 0.54
G19C G29A | 0.92

Variant | self-cleavage
G19C G29U | 0.54
U20A G30U | 0.93
U20A G30A | 0.62
U20A G30C | 0.68
G19A G27U | 0.93
G19A G27A | 1.19
G19A G27C | 0.53
G19U G21C | 0.81
G19U G21U | 0.58
G19U G21A | 0.64
U20A U43C | 0.13
U20A U43A | 0.08
U20A C37A | 0.05
U20A C37G | 0.03
U20A C37U | 0.05
U20A G40A | 0.1
U20A G40C | 0.06
U20A G40U | 0.08
G19C A24C | 0.34
G19C A24U | 0.6
G19C A24G | 0.53
U20C | 0.66
U20A | 0.68
G19U A39G | 0.06

Variant | self-cleavage
G19U A39C | 0.06
G19U A39U | 0.58
G19C U43A | 0.02
G19C U43C | 0.03
G19C U43G | 0.02
U20A A41C | 0.05
U20A A41G | 0.36
U20A A41U | 0.35
G19A C37G | 0.03
G19A C37U | 0.05
G19A C37A | 0.07
G19A C46G | 1.53
G19A C46A | 0.81
G19A C46U | 1.74
U20C A25C | 0.75
U20C A25G | 0.53
U20C A25U | 1.02
G19U U38G | 0.02
G19U U38C | 0.3
G19U U38A | 0.38
U20A C42A | 0.11
U20A C42U | 0.12
U20A C42G | 0.04
U20A G36U | 0.05

Variant | self-cleavage
U20A G36C | 0.07
U20A G36A | 0.26
U20A U28A | 0.55
U20A U28G | 0.28
U20A U28C | 0.67
U20A A39G | 0.06
U20A A39C | 0.08
U20A A39U | 0.62
G19C G22U | 0.51
G19C G22C | 0.32
G19C G22A | 0.39
U20A U38C | 0.41
U20A U38A | 0.43
U20A U38G | 0.02
G19U C31U | 0.44
G19U C31A | 0.37
G19U C31G | 0.05
G19A G44A | 0.75
G19A G44C | 0.48
G19A G44U | 0.51
G19C C23A | 0.37
G19C C23U | 0.83
G19C C23G | 0.42
G19C U20G | 0.4

Variant | self-cleavage
G19C U20C | 0.61
G19C U20A | 0.3
G19A C45U | 1.74
G19A C45G | 0.38
G19A C45A | 0.79
G19A G22A | 0.62
G19A G22U | 0.99
G19A G22C | 0.71
G19U C45G | 0.82
G19U C45U | 1.38
G19U C45A | 0.43
G19C G36C | 0.05
G19C G36A | 0.09
G19C G36U | 0.06
G19A A41C | 0.08
G19A A41G | 0.29
G19A A41U | 0.77
G19U G36A | 0.1
G19U G36C | 0.1
G19U G36U | 0.04
G19U G29C | 0.64
G19U G29U | 0.8
G19U G29A | 0.93
G19C G40C | 0.06

Variant | self-cleavage
G19C G40U | 0.08
G19C G40A | 0.06
G19C G30A | 0.91
G19C G30C | 1
G19C G30U | 0.54
G19U C37U | 0.04
G19U C37A | 0.05
G19U C37G | 0.02
U20A C45U | 1.4
U20A C45G | 0.21
U20A C45A | 0.77
G19U G33A | 0.18
G19U G33C | 0.07
G19U G33U | 0.13
G19C G35C | 0.17
G19C G35U | 0.07
G19C G35A | 0.17
U20A C31G | 0.08
U20A C31U | 0.17
U20A C31A | 0.09
G19U C42G | 0.07
G19U C42U | 0.3
G19U C42A | 0.14
U20C A24G | 0.44

Variant | self-cleavage
U20C A24C | 0.31
U20C A24U | 0.67
G19A C23G | 0.41
G19A C23U | 1.06
G19A C23A | 0.96
U20A U32A | 0.06
U20A U32C | 0.09
U20A U32G | 0.08
G19U G30U | 1.11
G19U G30A | 0.96
G19U G30C | 0.59
U20C A26G | 0.36
U20C A26C | 0.36
U20C A26U | 0.68
G19C G21U | 0.47
G19C G21A | 0.51
G19C G21C | 0.27
U20A G29A | 0.51
U20A G29C | 0.55
U20A G29U | 0.45
G19U A41G | 0.2
G19U A41U | 0.41
G19U A41C | 0.03
G19U A25C | 0.61

Variant | self-cleavage
G19U A25U | 0.67
G19U A25G | 0.49
G19C | 0.5
G19U | 0.77
G19C U34G | 0.14
G19C U34C | 1.22
G19C U34A | 0.28
U20A G33C | 0.04
U20A G33U | 0.07
U20A G33A | 0.13
G19C U28C | 0.6
G19C U28A | 1.2
G19C U28G | 0.37
G19C A25G | 0.26
G19C A25U | 0.26
G19C A25C | 0.5
G19U A24U | 0.81
G19U A24G | 0.45
G19U A24C | 0.73
G19C A26U | 0.37
G19C A26C | 0.68
G19C A26G | 0.27
G19A U32A | 0.15
G19A U32C | 0.12

Variant | self-cleavage
G19A U32G | 0.1
U20A G44U | 0.2
U20A G44C | 0.16
U20A G44A | 0.51
G19C U38A | 0.05
G19C U38C | 0.28
G19C U38G | 0.01
G19U G40U | 0.1
G19U G40C | 0.05
G19U G40A | 0.08
U20A A24C | 0.28
U20A A24G | 0.68
U20A A24U | 0.62
G19C A39C | 0.05
G19C A39G | 0.02
G19C A39U | 0.28
G19C C31A | 0.63
G19C C31G | 1.26
G19C C31U | 0.58
G19U U34G | 0.16
G19U U34C | 0.17
G19U U34A | 0.13
G19U G35A | 0.12
G19U G35U | 0.16

Variant | self-cleavage
G19U G35C | 0.09
G19A C42A | 0.34
G19A C42G | 0.04
G19A C42U | 0.43
G19U G44C | 0.31
G19U G44U | 0.28
G19U G44A | 0.27
U20A G22C | 0.38
U20A G22U | 0.91
U20A G22A | 0.55
G19U U20G | 0.77
G19U U20C | 0.76
G19U U20A | 0.86
U20C A39C | 0.2
U20C A39G | 0.06
U20C A39U | 0.37
G19C G27U | 0.43
G19C G27A | 0.54
G19C G27C | 0.61
U20A G27C | 0.24
U20A G27U | 0.81
U20A G27A | 0.83
